# ± gives the standard deviation of the averaged measurements.
# B1: library; a variant is named by its letters at N, in order (parent)
# chain: GCUGUCACCGAGAAACUGUGAAGUAUAUCUUAAACCUGGGCACUUAAAAGAUAUAUGGAGUUAGUAGUGCAACCUGCUCGGUCUGAUGAGUCCNNNNNNGGACGAAACAGC
# Legend:
# cyclic di-GMP [1] = variants of: B1; test: FACS-Seq fitted mean relative fluorescence mCherry/BFP without ligand (log10 relative fluorescence); HEK293T; ligand: cyclic di-GMP (c-di-GMP-II aptamer); higher = higher reporter protein expression; conditions: ligand present: no
# Procedure, shortened: (§1)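 Fluorescence figures are normalized fitted normal means of sequenced bin counts. Enriched, lentivirally transduced HEK293T libraries with a ribozyme-switch mCherry reporter and EF1α-BFP were held 48 h with or without ligand, then sorted into 6 mCherry/BFP bins. PCR-amplified, barcoded genomic DNA from each bin was sequenced on MiSeq. Means of log10(mCherry/BFP) were scaled to five spiked-in control ribozymes.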
# cyclic di-GMP [2] = variants of: B1; test: normalized RNA/DNA level without ligand (relative to sTRSVctl = 100) (log10 (% of sTRSVctl)); HEK293T; ligand: cyclic di-GMP (c-di-GMP-II aptamer); higher = less ribozyme self-cleavage, higher mRNA level; conditions: reporter: mCherry (pCS4076), ligand present: no
# Procedure, shortened: (§2)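 For each 6-well well, 4 µg of library plasmid encoding mCherry-linked ribozyme switches, or eGFP-linked ones in some ligand experiments, was transfected into HEK293T. Any ligand was added 1 h before transfection, and RNA was extracted with EDTA 72 h after it, then reverse-transcribed, amplified, barcoded and sequenced. RNA level was obtained by dividing RNA reads by DNA reads, normalizing to a spiked-in non-cleaving sequence or to the top sequences, then scaling and log-transforming. The top set was 25 sequences, scaling was ×100 with log10, and ≥100 DNA reads were required.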
# cyclic di-GMP [3] = variants of: B1; test: FACS-Seq fitted mean relative fluorescence mCherry/BFP with ligand (log10 relative fluorescence); HEK293T; ligand: cyclic di-GMP (c-di-GMP-II aptamer); ligand concentration (+) FACS-Seq: 1 mM; higher = higher reporter protein expression; conditions: ligand present: yes
# Procedure, shortened: as §1
# cyclic di-GMP [4] = variants of: B1; test: normalized RNA/DNA level with ligand (relative to sTRSVctl = 100) (log10 (% of sTRSVctl)); HEK293T; ligand: cyclic di-GMP (c-di-GMP-II aptamer); ligand concentration (+) RNA-Seq: 1 mM; higher = less ribozyme self-cleavage, higher mRNA level; conditions: reporter: mCherry (pCS4076), ligand present: yes
# Procedure, shortened: as §2
Variant,FACS-Seq fitted mean (log10) (cyclic di-GMP [1]),normalized RNA/DNA level without ligand (log10) (cyclic di-GMP [2]),FACS-Seq fitted mean (log10) (cyclic di-GMP [3]),normalized RNA/DNA level with ligand (log10) (cyclic di-GMP [4])
GCUGUCACCGAGAAACUGUGAAGUAUAUCUUAAACCUGGGCACUUAAAAGAUAUAUGGAGUUAGUAGUGCAACCUGCUCGGUCUGAUGAGUCCAGGUAAGGACGAAACAGC,-0.299 ± 0.023,1.43 ± 0.034,-0.0992 ± 0.054,1.56 ± 0.17
GCUGUCACCGAGAAACUGUGAAGUAUAUCUUAAACCUGGGCACUUAAAAGAUAUAUGGAGUUAGUAGUGCAACCUGCUCGGUCUGAUGAGUCCAGGUAUGGACGAAACAGC,-0.276 ± 0.0093,1.57 ± 0.046,0.0998 ± 0.21,1.76 ± 0.066
GCUGUCACCGAGAAACUGUGAAGUAUAUCUUAAACCUGGGCACUUAAAAGAUAUAUGGAGUUAGUAGUGCAACCUGCUCGGUCUGAUGAGUCCCGGGUGGGACGAAACAGC,-0.608 ± 0.14,1.62 ± 0.026,-0.7531 ± 0.0033,1.82 ± 0.12
GCUGUCACCGAGAAACUGUGAAGUAUAUCUUAAACCUGGGCACUUAAAAGAUAUAUGGAGUUAGUAGUGCAACCUGCUCGGUCUGAUGAGUCCAGGUCAGGACGAAACAGC,-0.483 ± 0.071,1.649 ± 0.0037,-0.219 ± 0.037,1.77 ± 0.14
GCUGUCACCGAGAAACUGUGAAGUAUAUCUUAAACCUGGGCACUUAAAAGAUAUAUGGAGUUAGUAGUGCAACCUGCUCGGUCUGAUGAGUCCAGGUGAGGACGAAACAGC,-0.464 ± 0.029,1.52 ± 0.1,-0.245 ± 0.0095,1.6 ± 0.083
GCUGUCACCGAGAAACUGUGAAGUAUAUCUUAAACCUGGGCACUUAAAAGAUAUAUGGAGUUAGUAGUGCAACCUGCUCGGUCUGAUGAGUCCUGGUCGGGACGAAACAGC,-0.511 ± 0.12,1.77 ± 0.034,-0.326 ± 0.0047,1.89 ± 0.045
GCUGUCACCGAGAAACUGUGAAGUAUAUCUUAAACCUGGGCACUUAAAAGAUAUAUGGAGUUAGUAGUGCAACCUGCUCGGUCUGAUGAGUCCCGGUCAGGACGAAACAGC,-0.42 ± 0.019,1.45 ± 0.045,-0.182 ± 0.032,1.59 ± 0.18
GCUGUCACCGAGAAACUGUGAAGUAUAUCUUAAACCUGGGCACUUAAAAGAUAUAUGGAGUUAGUAGUGCAACCUGCUCGGUCUGAUGAGUCCCGGUCCGGACGAAACAGC,-0.137 ± 0.077,1.8527 ± 0.0016,0.251 ± 0.017,1.96 ± 0.069
GCUGUCACCGAGAAACUGUGAAGUAUAUCUUAAACCUGGGCACUUAAAAGAUAUAUGGAGUUAGUAGUGCAACCUGCUCGGUCUGAUGAGUCCUGGUGAGGACGAAACAGC,-0.506 ± 0.1,1.57 ± 0.12,-0.257 ± 0.04,1.75 ± 0.1
GCUGUCACCGAGAAACUGUGAAGUAUAUCUUAAACCUGGGCACUUAAAAGAUAUAUGGAGUUAGUAGUGCAACCUGCUCGGUCUGAUGAGUCCCGGUAAGGACGAAACAGC,-0.662 ± 0.021,1.19 ± 0.052,-0.41 ± 0.069,1.28 ± 0.087
GCUGUCACCGAGAAACUGUGAAGUAUAUCUUAAACCUGGGCACUUAAAAGAUAUAUGGAGUUAGUAGUGCAACCUGCUCGGUCUGAUGAGUCCCGGUAUGGACGAAACAGC,-0.696 ± 0.0075,1.35 ± 0.14,-0.413 ± 0.0071,1.51 ± 0.14
GCUGUCACCGAGAAACUGUGAAGUAUAUCUUAAACCUGGGCACUUAAAAGAUAUAUGGAGUUAGUAGUGCAACCUGCUCGGUCUGAUGAGUCCCGGUACGGACGAAACAGC,-0.413 ± 0.026,1.53 ± 0.13,-0.0971 ± 0.017,1.72 ± 0.086
GCUGUCACCGAGAAACUGUGAAGUAUAUCUUAAACCUGGGCACUUAAAAGAUAUAUGGAGUUAGUAGUGCAACCUGCUCGGUCUGAUGAGUCCCGGUGAGGACGAAACAGC,-0.266 ± 0.011,1.4 ± 0.13,0.0909 ± 0.043,1.64 ± 0.12
